Test system: MS2 coat protein
Assay: apparent KD of MS2 coat protein; designed switch direction (-1 OFF switch, 1 ON switch): -1; higher = weaker reporter binding
In short: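 Each step of the titration lasted 0.8–1.5 h at the lowest concentration and 10–20 min at the highest. The protein, SNAP-549-labelled MS2 coat protein, went from 0.7 or 1.5 nM doubling to 3 µM over RNA switches transcribed on Illumina chips by stalled E. coli RNA polymerase. Normalised cluster fluorescence was curve-fitted, and the per-design median over clusters is given as apparent KD.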

[1] = Eterna round: R95, input ligand: microRNA oligo, concentration not stated
[2] = input ligand: microRNA oligo, concentration not stated
[3] = Eterna round: R95, input ligand: FMN 200 uM
[4] = Eterna round: R95, input ligand: none

| Sequence | apparent KD of MS2 coat protein (input ligand: FMN 200 uM) [nM] | apparent KD of MS2 coat protein (input ligand: none) [nM] | apparent KD of MS2 coat protein [1] [nM] | apparent KD of MS2 coat protein [2] [nM] | apparent KD of MS2 coat protein [3] [nM] | apparent KD of MS2 coat protein [4] [nM] |
| --- | --- | --- | --- | --- | --- | --- |
| CCUCGACAUGAGGAUCACCCAUGUGAGGAUAUCAUAUUCAGACGAAAGGUGUUAGAGUUGAGAAGGCGCAUGUU [Eternabot (L1) Solution 51] (Eterna round: R97, puzzle: Exclusion 1) | 44.1 | 28.3 | – | – | – | – |
| CAUUUGUGAGGAUAUCAGGUGUGCUAGCGUACUGGUACAUCUGAGAAGGCACAUGAGGAUCACCCAUGUUCCUU [Mat - Exclusion 4 - Mod of JL - D36] (puzzle: Exclusion 4) | – | – | 12.8 | – | – | – |
| GUAGAGUAAGGAUAUUGUGAAUAGGAUAGAAUGGUUAGAAACAAGAAGGUACAUGAGGAUCACCCAUGUAAUGU [Excluse me!!!! 20 - Jieux - Exclusion 4] (puzzle: Exclusion 4) | – | – | 21.3 | – | – | – |
| AGCGAAUAGCUAGGAUAUGAGAAUAGAUAGAGCUCAGAAGGAGCACAUGAGGAUCACCCAUGUGAAGUCUUGAGGCUGCGUGGU [Prohibition 17 - Jieux - Exclusion NG 1] (Eterna round: R96, puzzle: Exclusion NG 1) | 20.8 | 18.8 | – | 14.7 | – | – |
| UUUAAUUUUUUUUUUUUACAAGCUUUUUGCUCGUCUUAUACAUGAGGAUCACCCAUGUGGGUAGAGGGUAAAUUAUC [JMF 82] (puzzle: Sensor v3, turn-off variant 2) | – | – | 38.9 | – | 15.1 | 14.9 |
| ACUGCCACAGGAUAUACGAAACUCUUGGGUUCCGCCGUGUGACAUGAGGAUCACCCAUGUAGAAGGGUGGCUUA [Atbiinza] (puzzle: Exclusion 2) | – | – | 398 | – | – | – |
| ACAUGGAAGCAGGAUAUGCUUGUAUAAUUGAAAGCAGAAGGGCUAACAUGAGGAUCACCCAUGUAAGAGGUCUA [JR_E6_Sub060] (puzzle: Exclusion 6) | – | – | 21 | – | 91 | 24.7 |
| CGUCAGUCAGGAUAUGCAUACGUAGACAUGAGGAUCACCCAUGUGACGUGGGACUGGUGUGUAGAAGGGACGAACA [EX5 #78] (Eterna round: R97, puzzle: Exclusion 5) | 23.1 | 21.3 | – | – | – | – |
| GUCCUGGAAUAUCAGUCGCACAUGAGGAUCACCCAUGUCAUGGGUAGAUCAAUAAAUAAAGAUACUGCUCGUCUUAU [Cac sensor turnoff var1 sub3] (Eterna round: R97, puzzle: Sensor, turn-off variant 1) | 186 | 409 | – | – | – | – |
| AUAGGCCGAGGAUAUGUAGCUAUGAACAUGAGGAUCACCCAUGUGAGUGUCGUGCGUAUUAUAGAAGGCGGUGCAU [EX5 B.14] (Eterna round: R97, puzzle: Exclusion 5) | 17 | 16.1 | – | – | – | – |
| AGUACUAUGCGAGCUGACUUGCGUAGUGCAGCAGGUGUAACAUGAGGAUCACCCAUGUCCUCAUUUGCUCGUCUUAU [Mat - Sensor v3 - Turn-off var 2 - D8] (puzzle: Sensor v3, turn-off variant 2) | – | – | 326 | – | 250 | 248 |
| ACAUCGCCAGAAGUAGGUGACAUGAGGAUCACCCAUGUAGGCUAUUUUGCUCGUUUUAUUUCCACCCUAUUUGCUCC [Eternabot (L1) Solution 13] (Eterna round: R97, puzzle: Sensor, turn-off variant 1) | 146 | 190 | – | – | – | – |
| UUAUAUAGUGUGAGGAUAUGCUGGUCCUUGGAUCAGCAGAAGGCACAUGAGGAUCACCCAUGUAGUUAAAUAUA [Mat - Exclusion 4 - JL Mod - D18] (puzzle: Brourd's mod of Exclusion 4) | – | – | 31.1 | – | 252 | 39.5 |
| CUAUCAAGCAAGGAUAUGCAAAUAAUUAUUUAUGCAGAAGGUGCAACAUGAGGAUCACCCAUGUUUCUGGGUUU [JR_E6_Sub048] (puzzle: Exclusion 6) | – | – | 44.9 | – | – | – |
| AUUGUUUGAUACCUCUAAUACAUGAGGAUCACCCAUGUUAUCGAGGAUAUGUAGAAGAGAGGAGAACAGAAGGCGAAGUAAGAG [JR_ExcNG3_Sub095] (Eterna round: R96, puzzle: Exclusion NG 3) | 14.6 | 17.7 | – | 14.5 | – | – |
| AUGUGCACGCUGCGAUCCUACAUGAGGAUCACCCAUGUGGUCUGGUGGCGUGGGUCACCGGACUUGGCUCGUCUUGA [salish99_S_TOV1_R5_067] (Eterna round: R97, puzzle: Sensor, turn-off variant 1) | 117 | 128 | – | – | – | – |
| GUGUGCACGCUGCGAUCCUACAUGAGGAUCACCCAUGUGGUCUGGUGGCGUGGGUCACCGGACUUGGCUCGUCUUGG [salish99_S_TOV1_R5_077] (Eterna round: R97, puzzle: Sensor, turn-off variant 1) | 171 | 169 | – | – | – | – |
| AAUAAACAUGAGGAUCACCCAUGUGAGGAUAUACAGAUUAUAAGAAAAAAAAAAAAAAGUAGAAGGCACAUAUA [Default title] (Eterna round: R96, puzzle: Exclusion 1) | 39.6 | 37.6 | – | 29.9 | – | – |
